# Assay: yeast display, Sf9 membrane polyspecificity reagent, FACS + sequencing; frameworks hold sequencing errors
# In short: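 Galactose induction of a Saccharomyces cerevisiae BJ5465 synthetic nanobody display library ran 36–48 hours. The cells were then stained for 1 hour at 4 °C with 10% biotinylated, detergent-solubilized Sf9 membrane reagent, pulled down on streptavidin microbeads and FACS-sorted into low and high (top ~1%) gates on expression and reagent-binding fluorescence. Labels for polyreactivity follow the gate of origin.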
row,Sequence,polyreactivity (PSR sort gate)
1,QVQLVESGGGLVQAGGSLRLSCAACGFIFSSNAMGWYTPAPGNERELVAAITGGGGRTRYADSVKGRFTISRDNAKNSVYLQMNSLKPEDTAVYYCNTVYYVYYRSYSYKGDYWGQGTQVTVSS,high polyreactivity
2,QVQLVESGGGLVQAGGSLRLSCAACGFIFYKNAMGWYRQAPGKERELFAAISGGGGSTSYADSVKGRFTISRDNAKNTVYLQMNSLKPEDTAVYYCATYSFRRTGWRYDYWGQGTQVTVSS,high polyreactivity
3,QVQLVESGGGLVQAGGSLRLSCAACGFTFTAYAMVWYRQAPGKERELVAAISYRGGRTNYAYSVKGRFTISRDNAKNTVYLQMNSLKPEDTAVYYCAARPRISTREMDYWRQGTQVTVSS,high polyreactivity
4,QVQLVESGGGLVQAGGSLRLSCAACGGTFGNYAMGWYRQAPGKDRELVAAISTRGGSTYYADSVKGRFTISRDNAKNTVYLQMNSLKPEDTAVYYCNARIKRPRGVYGGDYWGQGTQVTVSS,high polyreactivity
5,QVQLVESGGGLVQAGGSLRLSCAACGITWGYAMGWYRQAPGKERELVAVIRWSGTSTSYADSVKGRYTISRAKAKNTVYLQMNSLKPEDTAVYYCNAAWYDQYGDSDGDDYWGQGTQVTVSS,low polyreactivity
6,QVQLVESGGGLVQAGGSLRLSCAACGRIFTYNAMGWYRQAPGKERELVAAISSSGGRTYYADSVKGRFTISRDNAKNTLYLEMNSLKPEDTAVYYCARAYREGGRTQRGDYWGQGTQVTVSS,high polyreactivity
7,QVQLVESGGGLVQAGGSLRLSCAACGRIFVRNAMGWYRQAPGKERELVADITNGGSTNYADSVKGRFTISRDNAKNTVYLQMNSLKPEDTAVYYCGAVYYSTDYYFWYDYWGQGTQVTVSS,low polyreactivity
8,QVQLVESGGGLVQAGGSLRLSCAACGRTSSIYAMGWYRQAPGKERELVATITGGAVSTSYADSVKGRFTISRDNAKYTVYLQMNSLKPEDSAVYYCAADHWRYRSRPVNYWRQGTQVTVSS,high polyreactivity
9,QVQLVESGGGLVQAGGSLRLSCAACGSIFKGNAMGWYRQAPGKERELVARISSGGSTYYADSVKGRFTISRDNAKNTVYLQMNSLKPEDTAVYYCAARVYTSYIRQYTYSYYYWGQGTQVTVSS,high polyreactivity
10,QVQLVESGGGLVQAGGSLRLSCAACGSILKQYAMGWYRQAPGKERVLDAAITWRGTGTYYADSVKGRFTISRDNAKKTVYLLMNSLQAEDTAVSYCAAKWYRRTYGYLPYTGIVNYDYWGQGTQLTVSS,high polyreactivity
11,QVQLVESGGGLVQAGGSLRLSCAACGSTFRYYAMGWYRQAPGKERELVAAITYSGGSTYYADSVKGRFTISRDNAKNTVYLQMNSLKPEDTAVYYCNADFLPRWYPPPYDYWGQGTQVTVSS,high polyreactivity
12,QVQLVESGGGLVQAGGSLRLSCAACGSTFYVNTMGWYRQAPGKERELVAAITDSGVGTYADSVKGRFTISRDNAKNTVYLQMNSLKPEDTAVYYCNADGRYYDDETYDYWGQGTQVTVSS,low polyreactivity
13,QVQLVESGGGLVQAGGSLRLSCAACVRTFSGYAMGWYRPAPGKERELVAAIRWSGGSTYYADSVKGRFTISRDNAKNTVYLQMNSLKPEDTAVYYCATRDYYYRYGYWGQGTQVTVSS,high polyreactivity
14,QVQLVESGGGLVQAGGSLRLSCAAFGFTFNSYAMGWNRQAPGKERELVAGITSSGGGTYYADSVKGRFTISRDNAKNTVYLQMNSLKPEDTAVYYCNTYSYLFSRYGFWGQGTQVTVSS,high polyreactivity
15,QVQLVESGGGLVQAGGSLRLSCAAFGSIFGYNAMGSYRQAPGKEREFVAAISWSGGRTYYADSVKGRFTISRDNAKNTVYLQMNSLKPEDTAVYYCAAPSRPAPRFDYWGQGTQVTVSS,low polyreactivity
16,QVQLVESGGGLVQAGGSLRLSCAAPGSTIRANAMGWYRQAPGKEMELVAAITKNGGSTYYADSVKGRFTISRDNAKNTVYLQMNSLKPEDTAVYYCAARRSSRRPPYYYWGQGTQVTVSS,high polyreactivity
17,QVQLVESGGGLVQAGGSLRLSCAASAFILQRNAMGWYRQAHGKERELVAAISSRGGSTYYADSVKGRFTISRDNAKNTVYLQMNSLKPEDTAVYYCNRRSRAHGYGSQYDYWGQGTQVTVSS,low polyreactivity
18,QVQLVESGGGLVQAGGSLRLSCAASAIIFDGNTMGWYRQAPGKEREFVAAISRNGGTTSYADSVKGRFTISRDNAKNTVYLQMNSLKPEDTAVYYCAADVETFWGWRYEYWGQGTQVTVSS,low polyreactivity
19,QVQLVESGGGLVQAGGSLRLSCAASAIIFYKNAMGWYRQAPGKERELVAAITRGGSTNYADSVKGRFTISRDNAKNTVYLQMNSLKPEDTAVYYCDKRWFYTRYPTYDYWGQGTQVTVSS,low polyreactivity
20,QVQLVESGGGLVQAGGSLRLSCAASARIFFTYVMGWYRQAHGKEREFVAAITFSDGTTYYADSVKGRFTISRDNAKNTVYLQMNSLKPEDTAVYYCNTDSFYGFVYPWTISSEVDYWGQGTQVTVSS,low polyreactivity
21,QVQLVESGGGLVQAGGSLRLSCAASARIFPWNAMGWYRQAPGKERELVAAITSGGGTTYYADSVKGRFTISRDNAKNTVYLQMNSLKPEDTAVYYCATPWEGSSTADYRISVYYWGQGTQVTVSS,low polyreactivity
22,QVQLVESGGGLVQAGGSLRLSCAASARIFYAYTMGWYRQAPGKERELVAAISGSGSTYYADSVKGRFTISRDNAMNTFFLQMNSLKPEDTAVYYCAADVTGGRKYDYWGQGTEVTVSS,low polyreactivity

row,Sequence,polyreactivity (PSR sort gate)
1,QVQLVESGGGLVQAGGSLRLSCAASARTFATYAMGWYRHAPGKEWELVAGITSGGNTYYADSVKGRFTISRDNAKNTVYLQMNSLKPVDTAVYYCAADRVYLGLFRYEYWGQGTQVTVSS,high polyreactivity
2,QVQLVESGGGLVQAGGSLRLSCAASARTFYYNGMGWYIQAPGKERELVAASSGGGSSTSYADSVKGRFTISRDNAKNTVYLQMNSLKPEDTAVYYCAAKYGALRYYKMYYWGQGTQVTVSS,low polyreactivity
3,QVQLVESGGGLVQAGGSLRLSCAASASIFDIYGMGWYRKAPGKERELVASISGGAGSTNYADSVKGRFTISRDNAKNTVYLQMNSLKPEDTAVYYCAADSADPTEYDYWGQGTQVTVSS,low polyreactivity
4,QVQLVESGGGLVQAGGSLRLSCAASASIFPDNTMGWYRQAPGKERELVAAIDGRGGTTYYADSVKGRFTISRDNAKNTVYLQMNSLKPEDTAVYYCARDIGHSARYDYWGQGTQVTVSS,low polyreactivity
5,QVQLVESGGGLVQAGGSLRLSCAASASIFWYNSMGWYRQAPGKEREFVDSISGSGTSTYADSVKGRFTISRDNAKNTVYLQMNSLKPEDTAVYYCIAYYEYSWLYSNWLYGKYDYWGQGTQVTVSS,low polyreactivity
6,QVQLVESGGGLVQAGGSLRLSCAASASIISYYAKGWYRQAPGKERELVAAISGSGSRTYYADSVKGRFTISRDNAKNTVYLQMNSLKPEDTAVYYCAARSLYRGFGYWGQGTQVTVSS,high polyreactivity
7,QVQLVESGGGLVQAGGSLRLSCAASASTFILSAMGWYRQAPGNERELVAAISSDGSTYYADSVKGRFTISRDNAKNTVYLQMNSLKPEDTAVYYCAAYGYDADTGYDYWGQGTQVTVSS,low polyreactivity
8,QVQLVESGGGLVQAGGSLRLSCAASASTFVYYAMGWYRQAPGKERELVAAISRSGTSTYYADSVKGRFTISRDNAKNTVYLQMNSLKPEDTAVFYCNARKKQGFDYWGQGTQVTVSS,high polyreactivity
9,QVQLVESGGGLVQAGGSLRLSCAASASTFWRYAMGWYRQAPGKERELVAAISWNGGSTYYADSVKGRFTISRDNAKNTVYLQMNSLKPEDTAVYYCARGYSWSVGYPRVQDMDYWGQGTQVTVSS,high polyreactivity
10,QVQLVESGGGLVQAGGSLRLSCAASEFTFLLYAMGWYRQAPGKERELVAAISRTGGSTYYADSVKGRFTISRDNAKKTVYLQMNSLNPEDTAVYYCNAAISRAWVSYYGSSSRYDYWGQGTQVTVSS,low polyreactivity
11,QVQLVESGGGLVQAGGSLRLSCAASFRYNDMGWYRQAPGKERELDAAISSGASTSYPDSVKGRFTISRDNAKNTVYLQMNSLKPEDSAVSYCAAETYELYGLNEYDYWGQGTQVTVSS,low polyreactivity
12,QVQLVESGGGLVQAGGSLRLSCAASGAILRRYAMGWYRQAPGKERELVAAISYSGGNTYYADSVKGRFTISRDNAKNTVYLQMNSLKPEDTAVYYCAARYYGTYRGFYYWGQGTQVTVSS,high polyreactivity
13,QVQLVESGGGLVQAGGSLRLSCAASGFAFSYYAMGWYRQATGKEREFVASIDWSGGSTYYADSVKGRFTISRDNAKNTVYLQLNSLKPEDTAVYYCAAELDYFPGYDYWGQGTQVTVSS,low polyreactivity
14,QVQLVESGGGLVQAGGSLRLSCAASGFAVSYYAMAWYRQAPGKEREFVASSDWSGGSTYYADSVKGRFTISRDNAKNTVYLQMNSLKPEYTAVYYCAAELVYFPGYDYWGQGTQVTVSS,low polyreactivity
15,QVQLVESGGGLVQAGGSLRLSCAASGFIFAAYAMGWYRQAPGKERELVAAISGSGGRTYYADSVKGRFTISRDNAKNTVYLQMNSLKPEDTAVYYCATPPGYPPGSIKWSRFGYWGQGTQVTVSS,high polyreactivity
16,QVQLVESGGGLVQAGGSLRLSCAASGFIFADNAMGWYRQAPGKERELVAGITSGGITNYADSVKGRFTISRDNAKNTVYLQMNSLKPEDTAVYYCAVYYRRWFSRYDYWGQGTQVTVSS,low polyreactivity
17,QVQLVESGGGLVQAGGSLRLSCAASGFIFADNTMGWYRQAPGKERELVAAISRRGGSTYYADSVKGRFTISRDNAKNTVYLQMNSLKPEDTAVYYCAARPFVKHDYWGQGTQVTVSS,high polyreactivity
18,QVQLVESGGGLVQAGGSLRLSCAASGFIFAEYAMGWYRQAPGKDRELVAAITSGGSTSYADSVKGRFTISRDNAKNTVYLQMNSLKPEDTAVYYCAATWYYHYNDWKHWYEYGYWGQGTQVTVSS,low polyreactivity
19,QVQLVESGGGLVQAGGSLRLSCAASGFIFAEYAMGWYRQAPGKERELVAAITSGGSTSYADSVKGRFTISRDNAKNTVYLQMNSLIPEDTAVYYCAATWYYHYNDWKHWYEYGYWGQGTQVTVSS,low polyreactivity
20,QVQLVESGGGLVQAGGSLRLSCAASGFIFAFNAMGWYRQAPGKERELVAAISRSGGSTYADSVKGRFTISRDNEKNTVYLQMNSLKPEDTAVYFCAAYSGVGYLWFDYWGHGTQVTVSS,low polyreactivity
21,QVQLVESGGGLVQAGGSLRLSCAASGFIFAGNAMGWYRQAPGKEREWVAAISRRGVRTYYADSVKGRFTISRDNAKNTVYLQMNSLKPEDTAVYYCAADRPASLISSDYWGQGTQVTVSS,high polyreactivity

# Source: the nanobody polyreactivity screen of Harvey et al. (2022)
